Experimental data: the nanobody polyreactivity screen of Harvey et al. (2022)

assay: yeast display, Sf9 membrane polyspecificity reagent, FACS + sequencing; frameworks hold sequencing errors
Method in brief: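 A nanobody's polyreactivity label depends on the gate it was sorted from. Yeast display cells were stained with 10% biotinylated, detergent-solubilized Sf9 membrane reagent for 1 hour at 4 °C, enriched on streptavidin microbeads and sorted by FACS. The low and high (top ~1%) gates were set on anti-HA fluorescence for expression and streptavidin fluorescence for reagent binding.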

Sequence	polyreactivity (PSR sort gate)
QVQLVESGGGLVQAGGSLRLSCAASGSIFTRYAMGWYRQAPGKERELVADIRTRGGGTYYADSVKGRFTISRDTAKNTVYLQMNSLKPEDTAVYYCAKLWYHVYGSSPYGYWGQGTQVTVSS	high polyreactivity
QVQLVESGGGLVQAGGSLRLSCAASGSIFTRYAMGWYRQEPGKERELVAAITTRGSSTYYADSVKGRFTISRDYAKNTVYLQMNSLKPEDTAVYYCATVVRLYRGRYRYDYWGQGTQVTVSS	high polyreactivity
QVQLVESGGGLVQAGGSLRLSCAASGSIFTSYAMGWYRHAPGKERELVAAITSTGGSTYYADSVKGRFTISRDNAKNTVYLQMNSLKPEDTAVYYCNADGGTPYDYWGQGTQVTVSS	low polyreactivity
QVQLVESGGGLVQAGGSLRLSCAASGSIFTSYAMGWYRQAPGKERELVAGISWSVGGITYYADSVKGRFTISRDNAKNTVYLQMNSLKPEDTAVYYCAADPEGGLGTIPEDYWGQGTQVTVSS	low polyreactivity
QVQLVESGGGLVQAGGSLRLSCAASGSIFTTYAMGWYRQAPGKERELVAAISSTSGSTYYADSVKGRFTISGDNAKNTVYLQMTSLKPEDTAVYYCAARGGYWGQGTQVTVSS	low polyreactivity
QVQLVESGGGLVQAGGSLRLSCAASGSIFTVYAMGWYRPAPGTERELVARISSGAGTTYADSVKGRFTISRDNAKNTVYVQMKSLTPEDTAVYYCAAYTWDTDHYWYGYVPYDYWGQGTQVSVSS	low polyreactivity
QVQLVESGGGLVQAGGSLRLSCAASGSIFTVYAMGWYRQAPGKERELVAAISRRGGSTYYADSVKGRFTISRDNAKNTVYLQMNSLKPEDTAVYYCAALERTLDNKYQFGYWGQGTEVTVSS	high polyreactivity
QVQLVESGGGLVQAGGSLRLSCAASGSIFTVYAMGWYRQAPGKERELVAVINYRGGNTYYADSVKGRFTISRDNAKNTVYLQMNSLKPEDTAVYYCATEVSWHWYQLSVPRMDYWGQGTQVTVSS	low polyreactivity
QVQLVESGGGLVQAGGSLRLSCAASGSIFTVYGMGWYRQAPGKERELVAAITCTSGGTYYADSVKGRFTISRDNAKNTVYLQMNSLKPEDTAVYYCNADGGSGAYLDLTITDYDYWGQGTQVTVSS	low polyreactivity
QVQLVESGGGLVQAGGSLRLSCAASGSIFTWNAMGWYRQAPGKERELVAAISWIGDSTYYADSVKGRFTISRDNAKNTVYLQMNSLKPEDTAVYYCAAEYAQGSRELESWGQGTQVTVSS	low polyreactivity
QVQLVESGGGLVQAGGSLRLSCAASGSIFTWNGMGWYRQAPGKERELVAAISNGASTNYADSVKGRFTISRDNAKNTVYLQMNSLYPEDTAVYYCAAKSTGRYDYWGQGTQVTVSS	low polyreactivity
QVQLVESGGGLVQAGGSLRLSCAASGSIFTWNVMGWYRQAPGKERELVAAISSGGSTNYADSVKGRFTISRDNAKNTVYLQMNSLKPEDTAVYYCATYFRVWYRSYDYWGQGTQVTVSS	high polyreactivity
QVQLVESGGGLVQAGGSLRLSCAASGSIFTWYAMGWYRQAPGKERELVAAITRGGSTYADSVKGRFTISRDNAKNTVYLQMNSLKPEDTAVYYCNAVYGVYDFNYWGQGTQVTVSS	low polyreactivity
QVQLVESGGGLVQAGGSLRLSCAASGSIFTYNTMGWYRQAPGKERELVAAISGRGGRTYYADSVKGRFTISRDNAKKTVYLQMNSLKPEDTAVYYCNARKYSQKIYGNYNYWGQGTQVTVSS	high polyreactivity
QVQLVESGGGLVQAGGSLRLSCAASGSIFTYYAMGWYRPEPGKERELVAAISRRGTRTYYADSVKGRFTISRDNAKNTVYLQMNSLKPEDTAVYYCAAEYTETGTAKMEYWGQGTQVTVSS	high polyreactivity
QVQLVESGGGLVQAGGSLRLSCAASGSIFTYYAMGWYRQAPGKERELVAAIDFSGASTSYADSVKGRFTISRDNAKNTVYLQMNSLKPEDTAVYYCAAVLYWYPPYYYWGQGTQVTVSS	low polyreactivity
QVQLVESGGGLVQAGGSLRLSCAASGSIFTYYAMGWYRQAPGKERELVAAINWSGGSTYYADSVKGRFTISRDNAKNTVYLQMNSLKPEDTAVYYCATDYYARRHSPRYDYWGQGTQVTVSS	low polyreactivity
QVQLVESGGGLVQAGGSLRLSCAASGSIFTYYAMGWYRQAPGKERELVAAISYSGGTTYYADSVKGRFTISRDNAKNTVYLQMYSLKPEDTAVYYCNVDADYESEWLSVGYDYWGQGTQVTVSS	low polyreactivity
QVQLVESGGGLVQAGGSLRLSCAASGSIFTYYAMGWYRQAPGKERELVASISWGGGSTYYADSVKGRFTISRDNAKNSVYLQMNSLKPVDTAVYYCATDVYVDYFVGGEYWGQGTQVTVSS	low polyreactivity
QVQLVESGGGLVQAGGSLRLSCAASGSIFTYYVMGWYRQAPGKERELVATITGSSGSTYYADSVKGRFTISRDNAKNTVYLQMNSLKPEDTAVYYCNRTYYHYLYRGYGYWGQGTQVTVSS	low polyreactivity
QVQLVESGGGLVQAGGSLRLSCAASGSIFVAYDMGCYRQAPGKESALVAAIDSVGRTNYADSVKGRFTISRDNAKNTVYLQMNSLQPEDTAVYYCNADQYYSFYDPDDYWGQGTQVTVSS	low polyreactivity

Sequence	polyreactivity (PSR sort gate)
QVQLVESGGGLVQAGGSLRLSCAASGSIFVDYAMGWYRQAPGKERELVAAITSGGRTNYADSVKGRFTISRDNAKNTVYLQMKSLKPEDTAVYYCNKTRYTNYYTTTFDYWGQGTQVTVSS	low polyreactivity
QVQLVESGGGLVQAGGSLRLSCAASGSIFVFYAMGWYRQAPGKERELVASITRSGVSTYYADSVKGRFTISRDNAKNTVYLQMNSLKPEDTAVYYCNVYKGNVVEHDYWGQGTQVTVSS	high polyreactivity
QVQLVESGGGLVQAGGSLRLSCAASGSIFVGNAMGWYRQAPGKERELFAAISSSGGSTYYADSVKGRFTISRDKAKNTFYLQMNILKPEDTAVYYCASDTYSTSGFYYWGQGTQVTVSS	low polyreactivity
QVQLVESGGGLVQAGGSLRLSCAASGSIFVGNAMGWYRQAPGKERELVAAISRGGGSTYYADSVKGRFTISRDNAKNTVYLQMNSLKPEDTAVYYCAAVKYYYGSAYDYWGQGTQVTVSS	high polyreactivity
QVQLVESGGGLVQAGGSLRLSCAASGSIFVGNAMGWYRQAPGKERELVAAISWGGARTYYADSVKGRFTISRDNAKNTVYLQMNSLKQEDTAVYYCAAGSSSRSTTHYYYWGQGTQVTVSS	high polyreactivity
QVQLVESGGGLVQAGGSLRLSCAASGSIFVGNAMGWYRQAPGKERELVATISWSGGSTYYADSVKGRFTISRDNAKNTVYLQMNSLKPEDTAVYYCAKTPYRRYRYGGYTYRTYDYWGQGTQVTVSS	low polyreactivity
QVQLVESGGGLVQAGGSLRLSCAASGSIFVGYAMGWYRQAPGKERELVAAISASGSSTYYADSVKGRFTISRDNAKNTVYLQMNSLKPEDTAVYYCATKRVASSWTYVYWGQGSQVTVSS	high polyreactivity
QVQLVESGGGLVQAGGSLRLSCAASGSIFVGYAMGWYRQAPGKERELVARISSDGDTYYADSVKGRFTISRDNAKNTVYLQMNSLKPEDTAVYYCNADLYGGGDKSVISGLNGEYEYWGQGTQVTVSS	low polyreactivity
QVQLVESGGGLVQAGGSLRLSCAASGSIFVGYAMGWYRQAPGKETELVAAISTRGGSTYYAETVKGRFTISRDNAKNTVYLQMNILKPEDNAVYYCAADYLDSTYGYVYGWDDYWGKGTQVTVSS	low polyreactivity
QVQLVESGGGLVQAGGSLRLSCAASGSIFVIYAMGWYRPAPGKERELVAAITGRGGRTYYADSVKGRFTISRDNAKNTVYLQMISLKPEDNAVYYCAADSVYTLGLKYDYWGHGTQVTVSS	high polyreactivity
QVQLVESGGGLVQAGGSLRLSCAASGSIFVKNAMGWYIHAPGKERELVATISRRGGSTYYADSVKGRFTISRDIAKNTVYLQMNSMKPEDTAVYYCAADRSNRPYYRQGYDYWGQGTQVTVSS	high polyreactivity
QVQLVESGGGLVQAGGSLRLSCAASGSIFVKNAMGWYRQAPGKERELVAVITIRTATPYYADSVKGRFTISRDNAKNSVYLQMNSLKPEDTAVYYCAAAKRQRGYLQREGNYWGQGTQVTVSS	low polyreactivity
QVQLVESGGGLVQAGGSLRLSCAASGSIFVKYAMGWYRQAPGTERELVAAISWSGDSTYYADSVKGRITISRDNAKNTVYLQMNSLIPEDTAVYFCAAYSGYGGVSMYYWGQGTQVTVSS	low polyreactivity
QVQLVESGGGLVQAGGSLRLSCAASGSIFVLNAMGLYRQAPGKERELVAGISSSGGSTYYADSVKGRFTISRDNAKNTVYLQMNSLKPEDTAVYYFAKDAGLYEGDYWGQGTQVTVSS	low polyreactivity
QVQLVESGGGLVQAGGSLRLSCAASGSIFVLNAMGWYRQAPGKERELGAAITNVGSTYYADSVKGRFTISRDNAKNTVYLQMNSLKPEDTAVYYCNAVLAPGGYDYWGQGTQVTVSS	low polyreactivity
QVQLVESGGGLVQAGGSLRLSCAASGSIFVLYAMGWYRQAPGKERELVAAINYDGASTYYADSVKGRFTISRDNAKNTVYLQMNSLKREDTAVYYCAKRFGPAYFRLYDYWGQGTQVTVSS	low polyreactivity
QVQLVESGGGLVQAGGSLRLSCAASGSIFVNNAMGLYRQAPGKERELVAAISSRSSRTFYADSVKGRFTISRDYAKNTVYLQMNSLKPEDTAVYYCAAELYGLKYGYYLSYDYWGQGTQVTVSS	high polyreactivity
QVQLVESGGGLVQAGGSLRLSCAASGSIFVNYAMGWFRQAPGKERELVAAITRSGGRTYYADSVKGRFTISRDNAKNTVYLQMNSLKPEDTAVYYCAARLGYAGNRDGSWGQGTQVTVSS	high polyreactivity
QVQLVESGGGLVQAGGSLRLSCAASGSIFVNYAMGWYRQAPGKERELVAAISRSGGRTYYADSVKGRFTISRDNAKNTVYLQMNSLKPEDTAVYDCNVYPVLRTIEGDYWGQGTQVTVSS	high polyreactivity
QVQLVESGGGLVQAGGSLRLSCAASGSIFVPNAMGWSRQALGKERELVAAITYSGVDTYYADSVKGRFTISRDNAKNTVYLQMNSLKPEDTAVYYCAADNGRVGYDYWGQGTQVTVSS	low polyreactivity
